Series [1] deals with the molecule itself. Put plainly: cryo-EM structure; purified Sei1-Ldb16 complex reconstituted in amphipol PmalC8, about 3.5 mg/ml; negative stain and cryo-EM; C10 then C5 symmetry.
Series [2] concerns the molecule itself. In words: negative-stain EM; WT lumenal domain oligomers from the SEC, 2D class averages.

B1: yeast seipin Sei1 with C-terminal 3xFLAG-TEV-2xProteinA tag, purified from strain HAY60 (natural protein, S. cerevisiae, UniProt Q06058 1-285, looked up)
chain: MKINVSRPLQFLQWSSYIVVAFLIQLLIILPLSILIYHDFYLRLLPADSSNVVPLNTFNILNGVQFGTKFFQSIKSIPVGTDLPQTIDNGLSQLIPMRDNMEYKLDLNLQLYCQSKTDHLNLDNLLIDVYRGPGPLLGAPGGSNSKDEKIFHTSRPIVCLALTDSMSPQEIEQLGPSRLDVYDEEWLNTIRIEDKISLESSYETISVFLKTEIAQRNLIIHPESGIKFRMNFEQGLRNLMLRKRFLSYIIGISIFHCIICVLFFITGCTAFIFVRKGQEKSKKHS
notes: seipin Sei1 (Fld1), S. cerevisiae; tagged at the endogenous locus; The 2xProteinA part held the protein on IgG Sepharose and was cut off with TEV protease before SEC and cryo-EM; The deposited model holds residues 17-264 without 134-147; also called Fld1; source: S. cerevisiae strain HAY60, overproduced from the GAL1 promoter at the endogenous locus; purified (IgG Sepharose, TEV cleavage, …)
Turning to B1, the “stoichiometry N” value in series [1] worked out at 10.

B2: seipin lumenal domain WT(47-235) with C-terminal 6xHis (domain or fragment, S. cerevisiae, UniProt Q06058 47-235, looked up)
chain: ADSSNVVPLNTFNILNGVQFGTKFFQSIKSIPVGTDLPQTIDNGLSQLIPMRDNMEYKLDLNLQLYCQSKTDHLNLDNLLIDVYRGPGPLLGAPGGSNSKDEKIFHTSRPIVCLALTDSMSPQEIEQLGPSRLDVYDEEWLNTIRIEDKISLESSYETISVFLKTEIAQRNLIIHPESGIKFRMNFEQG
notes: seipin Sei1, S. cerevisiae, lumenal domain lacking the TM segments, residues 47-235; also called WT lumenal domain; source: E. coli SHuffle T7 Express, purified (Ni-NTA), isolated in the absence of detergent; copies: 10
In the case of B2, the “stoichiometry N” value in series [2] was determined as 10.
